T1: CD81 (UniProt P60033 1-236, limits assumed)
T1 construct: whole, on cells; also called CD81 receptor
T1 sequence (looked up): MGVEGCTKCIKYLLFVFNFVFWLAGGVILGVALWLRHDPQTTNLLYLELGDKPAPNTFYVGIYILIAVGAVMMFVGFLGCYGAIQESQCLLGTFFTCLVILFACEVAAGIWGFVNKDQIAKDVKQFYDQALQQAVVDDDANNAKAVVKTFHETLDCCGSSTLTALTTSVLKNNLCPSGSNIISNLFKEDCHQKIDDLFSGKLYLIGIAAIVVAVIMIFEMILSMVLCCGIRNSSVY


Molecular target: T1, CD81
Test: cell ELISA
Method: For the binding cell ELISA assay, HuH7-Rluc-H3 (positive cell line expressing CD81) and HuH7-Rluc-L1 (negative control cell line) were propagated in F-12 DMEM medium with 10% FCS at 37° C. and 5% CO₂. On day 1, the cells were trypsinized at approximately 90% confluence and resuspended at 4×10⁵ cells/mL. […] On day 2, the antibody samples to be tested were prepared in a separate polypropylene round bottom plate with a twofold desired concentration with a final volume of 120 μl. All of the assay samples were diluted in cell culture medium. […] After fixation, each well was washed 3 times with 200 μL PBS/0.05% Tween. The secondary incubation step for detection of bound anti-CD81 antibodies was performed for 2 h at room temperature on a reciprocal shaker. […] Each well was washed three times with 200 PBS/0.05% Tween to remove unbound antibodies. […] The absorbance was read using the ELISA Tecan reader at 450 nm with 620 nm reference wavelength.

| Binder | ELISA absorbance |
| --- | --- |
| CD81K04 HC CD81K04 / LC CD81K04 (antibody, V domains shown, chimeric form of murine CD81K04) VH: QVQLQQSGPELVKPGASVKISCKASGYTFSSSWMNWVKQRPGKGLEWIGRIYSGDGDAIYNGKFKGKATLTADKSSSTAYMQLSSLTSEDSAVYFCAREGKTGDLLLRSWGQGSALTVSS VL: DIVLTQSPASLSVSLGQRATISCRASKSVSTSIYSYMHWYQQKPGQPPKLLIKYASYLESGVPARFSGSGSGTDFTLNIHPVEEEDAATYYCEHSREFPFTFGTGTKLEIK | 1.14 |
| CD81K04 HC K04_JA-13-hVH_1_3 / LC CD81K04 (antibody, V domains shown) VH: QVQLVQSGAEVKKPGASVKVSCKASGYTFSSSWMNWVRQAPGQRLEWMGRIYSGDGDAIYNGKFKGRVTITRDTSASTAYMELSSLRSEDTAVYYCAREGKTGDLLLRSWGQGTLVTVSS VL: DIVLTQSPASLSVSLGQRATISCRASKSVSTSIYSYMHWYQQKPGQPPKLLIKYASYLESGVPARFSGSGSGTDFTLNIHPVEEEDAATYYCEHSREFPFTFGTGTKLEIK | 0.975 |

Molecular target: T2, phosphorylated human tau protein (human, UniProt P10636-8 1-441, limits assumed, S422 phosphorylation)
T2 construct: also called pTau
T2 sequence (P10636 other isoform, or with tags, fused parts or gaps limits assumed): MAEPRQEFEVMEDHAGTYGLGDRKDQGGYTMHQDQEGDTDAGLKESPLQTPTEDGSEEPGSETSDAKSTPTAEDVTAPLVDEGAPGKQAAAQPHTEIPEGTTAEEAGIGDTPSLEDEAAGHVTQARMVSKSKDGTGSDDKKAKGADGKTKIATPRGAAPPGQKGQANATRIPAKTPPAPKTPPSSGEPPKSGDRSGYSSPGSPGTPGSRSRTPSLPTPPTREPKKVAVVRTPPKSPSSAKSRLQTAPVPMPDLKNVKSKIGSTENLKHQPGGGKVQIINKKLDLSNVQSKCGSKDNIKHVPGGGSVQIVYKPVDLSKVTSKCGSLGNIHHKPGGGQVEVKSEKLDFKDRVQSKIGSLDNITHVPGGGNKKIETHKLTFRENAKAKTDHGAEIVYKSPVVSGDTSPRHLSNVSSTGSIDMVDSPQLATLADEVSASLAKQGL
Test: SPR (BIAcore), captured antibody

| Binder | half-life (t1/2) |
| --- | --- |
| Rb86 variant: HC 002--IMGT_hVH_3_23 / LC Rb86 (antibody, V domains shown) VH: QSVLESGGGLVQPGGSLRLSCAASGFSLSSNAINWVRQAPGKGLEWVGYIAVSGNTYYASWAKGRFTISRDNSKNTLYLQMNSLRAEDTAVYYCGKSNIWGPGTLVTVSS VL: AQVLTQTTSPVSAAVGSTVTISCQSSQSVRTNKLAWFQQKPGQPPKRLIYSASTLDFGVPSRFSASGSGTQFTLTISDVQCDDAATYYCLGYFDCSIADCVAFGGGTEVVVK | 8.41 min |
| Rb86 variant: HC Rb86 / LC 012--IMGT_hVK_1_17 (antibody, V domains shown) VH: QSVEESGGRLVTPGTPLTLTCTVSGFSLSSNAINWVRQAPGKGLEWIGYIAVSGNTYYASWAKGRFTISKASTTVDLKMTSPTAEDTGTYFCGKSNIWGPGTLVTVSL VL: DIQMTQSPSSLSASVGDRVTITCRASQGVRTNKLAWFQQKPGQPPKRLIYSASTLQSGVPSRFSGSGSGTEFTLTISSLQPEDFATYYCLGYFDCSIADCVAFGGGTKVEIK | 15.9 min |
| Rb86 variant: HC 001_IGHV3_23_04 / LC 012--IMGT_hVK_1_17 (antibody, V domains shown) VH: QQLVESGGGLVQPGGSLRLSCAASGFSLSSNAINWVRQAPGKGLEWVGYIAVSGNTYYASWAKGRFTISRDNSKNTLYLQMNSLRAEDTAVYYCGKSNIWGQGTLVTVSS VL: DIQMTQSPSSLSASVGDRVTITCRASQGVRTNKLAWFQQKPGQPPKRLIYSASTLQSGVPSRFSGSGSGTEFTLTISSLQPEDFATYYCLGYFDCSIADCVAFGGGTKVEIK | 4.67 min |
| Rb86 variant: HC 001_IGHV3_23_04 / LC 013--IMGT_hVK_1_17 (antibody, V domains shown) VH: QQLVESGGGLVQPGGSLRLSCAASGFSLSSNAINWVRQAPGKGLEWVGYIAVSGNTYYASWAKGRFTISRDNSKNTLYLQMNSLRAEDTAVYYCGKSNIWGQGTLVTVSS VL: DIQMTQSTSSLSASVGDRVTITCRASQGVRTNKLAWFQQKPGQPPKRLIYSASTLQSGVPSRFSGSGSGTEFTLTISSLQPEDFATYYCLGYFDCSIADCVAFGGGTKVEIK | 5.65 min |
| Rb86 variant: HC Rb86 / LC 017--IMGT_hVK_1_17 (antibody, V domains shown) VH: QSVEESGGRLVTPGTPLTLTCTVSGFSLSSNAINWVRQAPGKGLEWIGYIAVSGNTYYASWAKGRFTISKASTTVDLKMTSPTAEDTGTYFCGKSNIWGPGTLVTVSL VL: DIQMTQSPSSLSASVGDRVTITCRSSQSVRTNKLAWFQQKPGQPPKRLIYSASTLDFGVPSRFSGSGSGTEFTLTISSLQPEDFATYYCLGYFDCSIADCVAFGGGTKVEIK | 23.2 min |
| Rb86 variant: HC 001_IGHV3_23_04 / LC 014--IMGT_hVK_1_17 (antibody, V domains shown) VH: QQLVESGGGLVQPGGSLRLSCAASGFSLSSNAINWVRQAPGKGLEWVGYIAVSGNTYYASWAKGRFTISRDNSKNTLYLQMNSLRAEDTAVYYCGKSNIWGQGTLVTVSS VL: DIQMTQSPSSLSASVGDRVTITCRASQGVRTNKLAWFQQKPGQPPKRLIYSASTLQSGVPSRFSGSGSGTEFTLTISSLQSEDFATYYCLGYFDCSIADCVAFGGGTKVEIK | 5.08 min |
| Rb86 variant: HC 001_IGHV3_23_04 / LC 015--IMGT_hVK_1_17 (antibody, V domains shown) VH: QQLVESGGGLVQPGGSLRLSCAASGFSLSSNAINWVRQAPGKGLEWVGYIAVSGNTYYASWAKGRFTISRDNSKNTLYLQMNSLRAEDTAVYYCGKSNIWGQGTLVTVSS VL: DIQMTQSPSSLSASVGDRVTITCRASQGVRTNKLAWFQQKPGQPPKRLIYSASTLQSGVPSRFSGSGSGTEFTLTISSLQPEDFATYYCLGYFDSSIADSVAFGGGTKVEIK | 3.02 min |
| Rb86 variant: HC 001_IGHV3_23_04 / LC 017--IMGT_hVK_1_17 (antibody, V domains shown) VH: QQLVESGGGLVQPGGSLRLSCAASGFSLSSNAINWVRQAPGKGLEWVGYIAVSGNTYYASWAKGRFTISRDNSKNTLYLQMNSLRAEDTAVYYCGKSNIWGQGTLVTVSS VL: DIQMTQSPSSLSASVGDRVTITCRSSQSVRTNKLAWFQQKPGQPPKRLIYSASTLDFGVPSRFSGSGSGTEFTLTISSLQPEDFATYYCLGYFDCSIADCVAFGGGTKVEIK | 5.26 min |

Molecular target: T2, phosphorylated human tau protein
Test: SPR (BIAcore); value set to 0 where kd not determinable

| Binder | half-life (t1/2) |
| --- | --- |
| Rb86 variant: HC 001_IGHV3_23_04 / LC 010--IMGT_hVK_1_17 (antibody, V domains shown) VH: QQLVESGGGLVQPGGSLRLSCAASGFSLSSNAINWVRQAPGKGLEWVGYIAVSGNTYYASWAKGRFTISRDNSKNTLYLQMNSLRAEDTAVYYCGKSNIWGQGTLVTVSS VL: DIQMTQSPSSLSASVGDRVTITCRASQGVRTNKLGWYQQKPGKAPKRLIYSASTLQSGVPSRFSGSGSGTEFTLTISSLQPEDFATYYCLGYFDCSIADCVAFGGGTKVEIK | 0 h |
